Results: US20170183403A1 (UNIVERSIT T Z RICH, published 2017)

How the values were obtained:
[1] = biological target: T1, human interleukin-2 (human, UniProt P60568 21-153); assay: SPR, antibody amine-coupled on GLM chip, hIL-2 in solution
T1 construct: also called hIL-2; human IL-2
Experimental: For this experiment an amine coupling GLM chip was used. The activation of the carboxylic acid groups in the chip was done using a mix of 1-ethyl-3-3-dimethylaminopropyl carbodiimide hydrochlorid (EDC at 0.2 M) and sulfo N-hydroxysulfosuccinimids (s_NHS at 0.05M) at […] for 420 seconds (s). […] Deactivation was followed adding ethanolamine HCl at […] for 300 s. Finally human IL-2 was added at different concentrations (starting from 100 nM and followed by three-fold dilutions) at […], 600 s association, and 240 s dissociation.
In order to characterize the binding properties of the anti-human IL-2 mAbs the binding to human interleukin-2 was tested with surface plasmon resonance binding assays.

[2] = biological target: T2, murine IL-2 (mouse, UniProt P04351 21-169); assay: SPR, NARA1 amine-coupled to a GLM chip, mouse IL-2 as analyte at 10, 3.3, 1.1, 0.37, 0.123 and 0.041 nM
T2 construct: also called mouse IL-2; mIL-2
T2 sequence (looked up): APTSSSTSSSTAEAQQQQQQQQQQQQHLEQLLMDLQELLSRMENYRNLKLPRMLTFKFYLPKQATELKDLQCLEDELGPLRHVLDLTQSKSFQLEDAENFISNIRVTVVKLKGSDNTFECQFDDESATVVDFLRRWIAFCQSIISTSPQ

[3] = biological target: T3, Reference peptide no. 28; assay: peptide microarray (RepliTope), 15-mers
T3 construct: hIL-2 15-mer, first library, on microarray; also called peptide 28
T3 peptide: PRDLISNINVIVLEL

[4] = biological target: T4, Reference peptide no. 11; assay: peptide microarray (RepliTope), 15-mers
T4 construct: hIL-2 15-mer, first library, on microarray; also called peptide 11
T4 peptide: YKNPKLTRMLTFKFY

T1 sequence (P60568 21-153 limits assumed): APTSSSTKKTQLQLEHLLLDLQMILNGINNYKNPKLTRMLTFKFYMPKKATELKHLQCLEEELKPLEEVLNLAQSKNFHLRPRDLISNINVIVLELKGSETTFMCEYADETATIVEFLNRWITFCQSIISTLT

Kd [1]: 1.2 nM
koff [1]: 2.08e-05 s⁻¹
binding result [2]: no binding (tested: 10 nM)
binding result [3]: no binding
binding result [4]: no binding
B1: NARA1 (antibody, mouse IgG2a, kappa, V domains shown)
VH: QVQLQQSGAELVRPGTSVKVSCKASGYAFTNYLIEWVKQRPGQGLEWIGVINPGSGGTNYNEKFKGKATLTADKSSSTAYMQLSSLTSDDSAVYFCARWRGDGYYAYFDVWGAGTTVTVSS
VL: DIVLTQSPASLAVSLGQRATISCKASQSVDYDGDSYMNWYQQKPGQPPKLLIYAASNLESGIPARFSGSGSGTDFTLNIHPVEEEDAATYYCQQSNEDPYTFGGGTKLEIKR
notes: Mouse monoclonal from hybridoma; Isotype controls used were mouse IgG2a; also called anti-IL2 (NARA1) antibody; monoclonal antibody NARA1
